In publication PMC3136621 (Analytical chemistry, 2011):
Values belong to the molecule of their own block, whether it stands above or below them.

What was measured:
[1] = target: yeast alcohol dehydrogenase (ADH) from Saccharomyces cerevisiae (Saccharomyces cerevisiae) (UniProt P00330); assay: native MS
[2] = target: the molecule itself; assay: native MS

- stoichiometry N [1]: 4
Molecule: yeast alcohol dehydrogenase (ADH) from Saccharomyces cerevisiae (from UniProt P00330 1-348) (enzyme)

B1: Fenna-Matthews-Olson (FMO) antenna protein from the green sulfur bacterium Chlorobaculum tepidum (natural protein, UniProt Q46393 1-366, looked up)
chain: MALFGSNDVTTAHSDYEIVLEGGSSSWGKVKARAKVNAPPASPLLPADCDVKLNVKPLDPAKGFVRISAVFESIVDSTKNKLTIEADIANETKERRISVGEGMVSVGDFSHTFSFEGSVVNLFYYRSDAVRRNVPNPIYMQGRQFHDILMKVPLDNNDLIDTWEGTVKAIGSTGAFNDWIRDFWFIGPAFTALNEGGQRISRIEVNGLNTESGPKGPVGVSRWRFSHGGSGMVDSISRWAELFPSDKLNRPAQVEAGFRSDSQGIEVKVDGEFPGVSVDAGGGLRRILNHPLIPLVHHGMVGKFNNFNVDAQLKVVLPKGYKIRYAAPQYRSQNLEEYRWSGGAYARWVEHVCKGGVGQFEILYAQ
- stoichiometry N [2]: 3
